The values that follow are results of earlier work, collected in paper PMC4186963.

This series has as its target CD28 (Homo sapiens) (UniProt P10747).

For CD80 (from UniProt P33681), the Kd (in general, the equilibrium constant for the complex coming apart) was 200 nM.
